According to US20040175385A1 (University of California, published 2004):
Like-named read-outs stand apart in the source and are kept apart here.

B1: C25 IgG (chimeric IgG, murine V domains, human C domains) (antibody, V domains shown)
VH: QVQLQESGGGLVKPGGSLKLSCAASGFTFSDYYMYWVRQTPEKRLEWVATISDGGSYTYYPDSVKGRFTISRDNAKNNLYLQMSSLKSEDTAMYYCSRYRYDDAMDYWGQGTTVTVSS
VL: DIELTQSPASLAVSLGQRATISCRASESVDSYGHSFMQWYQQKPGQPPKLLIYRASNLEPGIPARFSGSGSGTDFTLTINPVEADDVATYYCQQSNEDPFTFGSGTKLEIKR
B2: scFv S25 (scFv)
scFv: QVKLQQSGAELVRPGASVKLSCKASGYSLTSYWMNWVKQRPQGGLEWIGNIHPSDSDTRFNQKFEDKATLTVDTSSSTAYMQLSSPTSEDSAVYYCARGLYNGFWYFDVWGQGTTVTVSSGGGGSGGGGSGGGGSDIELTQSPALMAASPGEKVIITCSVSSSISSSNLHWYQQKSGTSPKPWIYGTSNLASQVPVRFSGSGSGTSYSLTISSMEAEDAATYYCQQWSSYPLTFGAGTKLEIKR
B3: S25 IgG (chimeric IgG, murine V domains, human C domains) (antibody, V domains shown)
VH: QVKLQQSGAELVRPGASVKLSCKASGYSLTSYWMNWVKQRPQGGLEWIGNIHPSDSDTRFNQKFEDKATLTVDTSSSTAYMQLSSPTSEDSAVYYCARGLYNGFWYFDVWGQGTTVTVSS
VL: DIELTQSPALMAASPGEKVIITCSVSSSISSSNLHWYQQKSGTSPKPWIYGTSNLASQVPVRFSGSGSGTSYSLTISSMEAEDAATYYCQQWSSYPLTFGAGTKLEIKR
B4: 3D12 IgG (fully human IgG) (antibody, V domains shown)
VH: QVQLVQSGGGVVHPGRSLKLSCAGSGFTFSDYDMHWVRQAPGKGLEWVAVMWFDGTEKYSAESVKGRFTISRDNSKNTLFLQMNSLRADDTAVYYCAREPDWLLWGDRGALDVWGQGTTVTVSS
VL: DIVMTQSPSTLSASVGDRVTITCRASQSISSWLAWYQQKPGKAPKLLMYEASSLESGVPSRFSGSGSGTEFTLTISSLQPDDFAAYYCQHYNTYPYTFGQGTKLEIK
B5: scFv C39 (scFv)
scFv: QVQLQESGGGSVKPGGSLKLSCAASGFTFSDYYMSWVRQTPEKRLEWVATISDGGSYTYYPDSVKGRFTISRDNAKNNLYLQMSSLKSEDTAIYYCVRYRYDEGLDYWGQGTTVTVSSGGGGSGGGGSGGGGSDIELTQSPASLAVSLGRRATISCRASESVDSYGHSFMHWYQQKPGQPPKLLIYLASNLESGVPARFSGSGSRTDFTLTIDPVEADDAATYYCQQNNEDPYTFGGGTKLEIKR
B6: scFv 1F3 (scFv)
scFv: EVQLQQSGARLVKPGASVKLSCKASGYTFTSFWMHWVKQRPGRGLEWIGRLDPNSGETKYNEKFKSKATLTVDKPSSTAYMELSSLTSEDSAVYYCAREAYGYWNFDVWGTGTTVTVSSGGGGSGGGGSGGGGSDIELTQSPASMSASPGEKVTMTCRATSSVSSSYLHWYQQKSGASPKLWIYSASNLASGVPSRFSGSGSGTSYLSTISSVEAEDAATYYCQQYIGYPYTFGGGTKLEIKR
B7: scFv 2B6 (human, non-immune library, Tables 9 and 10) (scFv)
chain: VKLVESGPGLVKPSQSLSLTCTVTGYSITSDYAWNWIRQFPGNKLEWMGYINYDGSNNYNPSLKNRISITRDTSKNQFFLKLNSVTSEDTATYYCARAGDGYYVDWYFDVWGTGTTVIVSSGGGGSGGGGSGGGGSYIELTQSPASLAVSLGQRATTSCRASESVDSYGNSFMHWYQQKPGQPPKLLIYLASNLESGVPARFSGSGSRTDFTLTIDPVEADDAATYYCQQNNEDPYTFGGGTKLEIKS
B8: scFv C25 (scFv)
scFv: QVQLQESGGGLVKPGGSLKLSCAASGFTFSDYYMYWVRQTPEKRLEWVATISDGGSYTYYPDSVKGRFTISRDNAKNNLYLQMSSLKSEDTAMYYCSRYRYDDAMDYWGQGTTVTVSSGGGGSGGGGSGGGGSDIELTQSPASLAVSLGQRATISCRASESVDSYGHSFMQWYQQKPGQPPKLLIYRASNLEPGIPARFSGSGSGTDFTLTINPVEADDVATYYCQQSNEDPFTFGSGTKLEIKR
B9: scFv 3D12 (human, immune library) (scFv)
scFv: QVQLVQSGGGVVHPGRSLKLSCAGSGFTFSDYDMHWVRQAPGKGLEWVAVMWFDGTEKYSAESVKGRFTISRDNSKNTLFLQMNSLRADDTAVYYCAREPDWLLWGDRGALDVWGQGTTVTVSSGGGGSGGGGSGGGGSDIVMTQSPSTLSASVGDRVTITCRASQSISSWLAWYQQKPGKAPKLLMYEASSLESGVPSRFSGSGSGTEFTLTISSLQPDDFAAYYCQHYNTYPYTFGQGTKLEIK

How the values were obtained:
[1] = biological target: T1, BoNT/A HC, recombinant binding domain (C-terminal domain of the heavy chain) of botulinum neurotoxin type A (Clostridium botulinum, UniProt P0DPI0 860-1296)
[2] = biological target: T1, BoNT/A HC, recombinant binding domain …; assay: SPR BIAcore, IgG on chip, BoNT/A HC in flow
[3] = biological target: T1, BoNT/A HC, recombinant binding domain …; assay: SPR BIAcore, Hc on chip, scFv in flow
[4] = biological target: T1, BoNT/A HC, recombinant binding domain …; assay: SPR BIAcore, scFv column of Table 6
[5] = biological target: T1, BoNT/A HC, recombinant binding domain …; assay: SPR BIAcore, HC on chip, scFv in flow
[6] = biological target: BoNT/A HC, recombinant binding domain (C-terminal domain of the heavy chain) of botulinum neurotoxin type A (Clostridium botulinum, UniProt P0DPI0 860-1296); assay: SPR BIAcore, HC on chip, scFv in flow; remark: listed apart in the source

Binder	Kd [2] [nM]	koff [2] [s⁻¹]	kon [2] [M⁻¹ s⁻¹]	Kd [3] [nM]	koff [3] [s⁻¹]	kon [3] [M⁻¹ s⁻¹]	Kd [4] [nM]	koff [4] [s⁻¹]	kon [4] [M⁻¹ s⁻¹]	Kd [5] [nM]	koff [5] [s⁻¹]	kon [5] [M⁻¹ s⁻¹]	also measured
B1	1.69	0.00224	1.32e+06	–	–	–	–	–	–	–	–	–	Kd [1]: 11 nM
B2	–	–	–	73	0.00082	11000	73	0.00081	11000	73	0.00082	11000	–
B3	3.9	0.0057	1.46e+06	–	–	–	–	–	–	–	–	–	–
B4	0.0562	0.000127	2.26e+06	–	–	–	–	–	–	–	–	–	Kd [1]: 0.55 nM
B5	–	–	–	2.3	0.00032	140000	–	–	–	–	–	–	–
B6	–	–	–	12	0.011	920000	–	–	–	–	–	–	–
B7	–	–	–	–	–	–	–	–	–	–	–	–	Kd [6]: 71.5 nM; koff [6]: 0.0078 s⁻¹; kon [6]: 109000 M⁻¹ s⁻¹
B8	–	–	–	1.1	0.00033	300000	1.1	0.00033	300000	1.1	0.00033	300000	–
B9	–	–	–	–	–	–	36.9	0.0005	13000	36.9	0.0005	13000	–
